Data: the nanobody polyreactivity screen of Harvey et al. (2022)

Test: yeast display, Sf9 membrane polyspecificity reagent, FACS + sequencing; frameworks hold sequencing errors
Outline: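 Polyreactivity labels are assigned by the sorting gate from which each nanobody was recovered. The gates were low and high (top ~1%), set on anti-HA fluorescence for expression and streptavidin fluorescence for reagent binding. Before sorting, galactose-induced (36–48 hours) yeast display cells were stained for 1 hour at 4 °C with 10% biotinylated, detergent-solubilized Sf9 membrane reagent.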

| Sequence | polyreactivity (PSR sort gate) |
| --- | --- |
| QVQLVESGGGLVQAGGSLRLSCAASGRIFSRNAMGWYIQAPGKERELVAAISRSGTSTYYADSVKGRFTISRDNAKYTVYLQMNSLKPEDTAVYYCAADYPAVISIRRYDYWGQGTQVTVSS | low polyreactivity |
| QVKLVESGGGLVQAGGSLRLSCAASGSIFTYTIGWYRQAPGKESELVAVISRSGGRTYYADSVKGRFTISRDNAKNTVYLQMNSLKPEDTAVYYCAAEYYVDYYRTSRSFTRWRYEYWGQGTQVTVSS | high polyreactivity |
| QVQLVESGGGLLQAGGSLRLSCAASGPTFAYYAMGWYRQATGKERELVAAIDSSGGSTYYADSVKGRFTISRDNSNNSVYLQMNSLKPEDTAVNYCAASYPYDRYDQGGFGYWGQGTQVTVSS | low polyreactivity |
| QVQLVESGGGLVQAGGRLRLSCAASGRIFSQYSMGWYRQAPGKERELVAAISSRGGRTYYADSVKGRFTFSRDNAKNTVYLQMNSLKPEDTAVYYCAAYVYPWGRDYWGQGTQVTVSS | high polyreactivity |
| QVQLVESGGGLVQAGGSLRLSCAASGRIFTIYAMGWYRQAPGKERELVAAISDRGTRTYYADSVKGRFTISRDNAKNTVYLQMNSLKPEDTAVYYCATDALYTYGYDYWGQGTQVTVSS | low polyreactivity |
| QVQLVESGGGLVQAGGSLRLSCAASGSIFNVYAMGWYRQAPGKERELVAAISDGDGSTFYADSVKGRFTISRDNAKNTVYLQMNSLKPEDTAVYYCAKDYRWDRKFDYWGQGTQVTVSS | low polyreactivity |
| QVQLVESGGGLVQAGGSLRLSCAASGRIFDTNAMGWYRQAPGKERELVAAISSGDTTNYADSVKGRFTISRDNAKNTVYLQMNSLKPEDTAVYYCAVYAISFGWSGWTYEDSWGQGTQVTVSS | low polyreactivity |
| QVQLVESGGGLLQAGGSLRLSCAASGRTFRYYTMGWYRQAPGKEREFVAAISSTGRTYYGDSVKGRFTISRDNAKNTVYLQMNSLKPEDTAVYYCAATFIQVVVNVQLYDYDYWGQGTQVTVSS | low polyreactivity |
| QVQLVESGGGLVQAGGSLRLSCAASGNTFNENAMGWYRQSPGKERELVAAITSSGVSTFYADSVKGRFTISRDNAKNTVYLQMNSLKPEDTAVYYCAAEYYELDEYTGDYWVGSDYWGQGTQVTVSS | low polyreactivity |
| QDQLVESRGGLVQAGGSLGLSCAASGSIFSYYAMGWYRQAPGKERELVAAITSGGATTYYADSVKGRFTISRDYAKNTVYLQMNSLKPEDTAVYYCAAGYYVYYRWWELDYWGQGTQVTVSS | low polyreactivity |
| QVQLVESGGGLVQAGGSLRLSCAASGSIFFGYAMGWYRQAPGKERELVAGISSNGGTTYYADSVKGRFTISRDYAKNTVYLQMNSLKPEDTAVYYCAKQYYARGYLYDYWGQGTQVTVSS | low polyreactivity |
| QVQLVESGGGLVQAGGSLRLSCAASGSIVRFYAMGWYRQAPGKERELVASITSGGSTNYADSVKGRFTISRDNAKNTVYLQMNSLKPEDTAVYYCAVRLKGYRRRDYWGQGTQVTVSS | high polyreactivity |
| QVQLHESGRGLVQAGGSLRLSCAATATISYAGPMGWYRQAPGKEREFVAGIGVGSNTNYADSVKGRYTIIRDNAKNTVYLQMNSLKPEDTAVYSCAVGGYAPLGRPYWGQGTQVTVSS | low polyreactivity |
| QVQLVESGGGLVQAGGSLRLSCAASGFIFYSYAMGWYRQAPGKEREFVAAISRGGGRTYYADSVKGRFTISRDNAKNTVYLHMYSLKQEDTAVFYCATLPNGPHWPEYDYWGQGTQVTVSS | high polyreactivity |
| QVQLVESGGGLVQAGGSLRLSCAASGRTFTRYAMGWYRQAPGPERELVAASRWSGTRTYYAVSVKGRITISRDNAKNTVDLQMNSLTPEDTAVYYCAARDRVYPDYGYWGQGTQVTVSS | high polyreactivity |
| QVQLVESGGGLVQAGGSLRLSCAASGSTLVIYAMGWYRQAPGKERELVAAINFSDGSTSYADSVKGRFTISRDNAKNTVYLQMNSLKPEDTAVFYWGQGTQVTVSS | low polyreactivity |
| QVQLVESGGGLVQAGGSLRVCCAASGRIFGNYAMGWYRQAPGKDRELVAAISGGGSTYYADSVKGRFTISRDNAKNTVYVQMNSLKPEDTAVYYCAAKPTYRGYGYGSWGQGTQVTVSS | low polyreactivity |
